Experimental findings from PMC2064651 are described below.

The target in the experiment is ADP/ATP carrier (S. cerevisiae (endogenous in strain GA74)) (UniProt P18239). Briefly: native gel or EMSA. Background: A gel shift assay detects complexes by their altered migration in electrophoresis.

As a reminder, the stoichiometry N is a count of units in the complex or per binding partner. For “ADP/ATP carrier (from UniProt P18239 1-318) (natural protein)”, the stoichiometry N was 2.
